Where two headings read alike, the source gives them in different places.
B1: Ulinastatin (protein, UniProt P02760 206-352, looked up)
Inter-alpha-trypsin inhibitor …: AVLPQEEEGSGGGQLVTEVTKKEDSCQLGYSAGPCMGMTSRYFYNGTSMACETFQYGGCMGNGNNFVTEKECLQTCRTVAACNLPIVRGPCRAFIQLWAFDAVKGKCVLFPYGGCQGNGNKFYSEKECREYCGVPGDGDEELLRFSN
modifications: Inter-alpha-trypsin inhibitor light chain

Legend:
Format in all cases: biochemical
[1] = target: T1, human neutrophil elastase (Homo sapiens, UniProt P08246); assay: Determination of Ki value against human neutrophil elastase (fluorogenic substrate MeOSuc-Ala-Ala-Pro-Val-7AMC); conditions: 30° C., pH 7.5, purified peptides with recovered activity, read-out: Inhibitory Activity against Human Neutrophil Elastase Ki
T1 sequence (P08246 30-267): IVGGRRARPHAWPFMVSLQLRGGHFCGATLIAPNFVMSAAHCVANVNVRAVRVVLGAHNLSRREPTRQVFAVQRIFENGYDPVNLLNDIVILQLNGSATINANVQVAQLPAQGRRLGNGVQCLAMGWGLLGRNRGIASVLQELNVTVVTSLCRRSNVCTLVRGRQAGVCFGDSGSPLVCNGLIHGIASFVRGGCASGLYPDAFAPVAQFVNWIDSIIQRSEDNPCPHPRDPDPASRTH
Description: Determination of Ki value of the samples of purified peptides of Example 7 against human neutrophil elastase was accomplished as follows.
10 μl of solution of human neutrophil elastase (Attends Research), (the concentration of which was adjusted to 25 μM with the following buffer), and 10 μl of test sample (the concentration of which was appropriately adjusted) were added to buffer containing 30 μl of 100 mM Tris-HCl (pH 7.5), 500 mM NaCl, 0.01% BSA, and left for 20 minutes at 30° C. Then, 200 μl of MeOSuc-Ala-Ala-Pro-Val-7AMC solution (Cambridge Research Biochemicals) containing 1% dimethyl-sulfoxide (hereinafter referred to as "DMSO") was added to the mixture to adjust the concentration thereof to 0.2 mM, 0.3 mM and 0.4 mM, and reacted at 30° C. Fluorescence at 450 nm excited at 365 nm was measured over 0 to 3 minutes with a spectrophotofluorometer (F-3000, HITACHI), and an initial reaction velocity was calculated. Ki value was determined by preparing a graph having a vertical axis of the reciprocal of initial reaction velocity and a horizontal axis of sample concentration, and then plotting on the graph lines for each of the three substrate concentrations and reading the intersection point of the three lines so obtained.

[2] = target: T2, bovine pancreas trypsin (Bos taurus, UniProt P00760); assay: Determination of Ki value against bovine pancreas trypsin (substrate Bz-DL-Arg-pNA); conditions: 30° C., pH 8.0
T2 construct: purchased Washington Biochemicals; host or cells: bovine pancreas
T2 sequence (P00760 24-246): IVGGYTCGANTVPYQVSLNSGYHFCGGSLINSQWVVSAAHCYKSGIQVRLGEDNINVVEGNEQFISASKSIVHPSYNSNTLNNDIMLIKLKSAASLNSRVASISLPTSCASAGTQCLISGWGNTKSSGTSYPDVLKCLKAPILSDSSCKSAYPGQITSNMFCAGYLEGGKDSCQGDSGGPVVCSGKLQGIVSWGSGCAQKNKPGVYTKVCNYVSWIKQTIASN
Description: Furthermore, the Ki value against trypsin was determined as follows.
Firstly, buffer containing 20 μl of 10 mM CaCl2, 50 mM Tris-HCl (pH 8.0) was mixed with 10 μl of test sample (1.2~6 μM) and 10 μl of 4.2 μM bovine pancreas trypsin solution (prepared by dissolving bovine pancreas trypsin in 1 mM HCl; Washington Biochemicals), and incubated at 30° C. for three minutes. 110 μl of 1M Tris-HCl (pH 8.0) buffer containing 100 mM CaCl2 was added to this solution, then 350 μl of any of 0.6 mM, 1.2 mM and 2.3 mM Bz-DL-Arg-pNA.HCl (Nakaraitesk) solution (containing 10% DMSO) was added, and reacted at 30° C. Change on absorbance at 405 nm over time was recorded, and the initial reaction velocity of the enzyme was determined therefrom. Then, the Ki value against trypsin was determined according to a procedure which was similar to the procedure for human neutrophil elastase above.

[3] = target: T1, human neutrophil elastase; assay: Resistance against oxidizer: inhibitory rate against human neutrophil elastase after treatment with chloro-succinate-imide; conditions: for Inhibitory Rate against Human Neutrophil Elastase (%): amount of inhibitor 20 p mole
Description: 5 μl of peptide sample, the concentration of which was adjusted appropriately, was mixed with 5 μl of 5 mM chloro-succinate-imide [prepared by dissolving chloro-succinate-imide (Nakaraitesk) in 100 mM Tris-HCl (pH 7.5) buffer containing 500 mM NaCl], then left for 10 minutes at room temperature, and then treated with the oxidizer. Then, 5 μl of human neutrophil elastase, concentration of which was adjusted with said buffer, and 35 μl of said buffer were further added thereto, and left for 15 minutes at 30° C. 450 μl of MeOSuc-Ala-Ala-Pro-Val-pNA (Cambridge Research Bio-Chemicals) solution (containing 1% DMSO), the concentration of which was adjusted to 0.1 mM with said buffer, was added thereto and further reacted for 30 minutes at 30° C. 40 μl of acetic acid was added and absorbance at 405 nm was measured. An inhibition against an activity of human neutrophil elastase in the samples treated with the oxidizer was indicated as an inhibitory rate (%) calculated by the following formula. [formula] A: Absorbance obtained from sample not containing inhibitor. B: Absorbance obtained from sample containing inhibitor.

| Molecule | Ki ([1]; listed as HI-8) | Ki [1] | Ki [2] | Inhibitory Rate against Human Neutrophil Elastase (%) ([3]; chloro-succinate-imide 0 mM) | Inhibitory Rate against Human Neutrophil Elastase (%) ([3]; chloro-succinate-imide 2.5 mM) | inhibitory activity against human neutrophil elastase under oxidizing conditions (in words) ([3]; treated with oxidizer chloro-succinate-imide) |
| --- | --- | --- | --- | --- | --- | --- |
| R15: Recombinant HI-8 peptide (C-terminal domain Thr78-Leu143 of UTI) expressed by using the plasmid pCD17R15 | ~690 nM | 690 nM | 360 nM |  |  |  |
| B1 |  | 120 nM | 920 nM | 72% | 5% | oxidized and inactivated completely |
